From the nanobody polyreactivity screen of Harvey et al. (2022)

Experiment: yeast display, Sf9 membrane polyspecificity reagent, FACS + sequencing; frameworks hold sequencing errors
Procedure, shortened: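 Nanobodies came from a synthetic yeast display library in Saccharomyces cerevisiae BJ5465, induced with galactose for 36–48 hours and stained for 1 hour at 4 °C with 10% biotinylated, detergent-solubilized Sf9 membrane reagent. Cells were enriched on streptavidin microbeads and then FACS-sorted, with low and high (top ~1%) gates set on anti-HA fluorescence for expression and streptavidin fluorescence for reagent binding. Each polyreactivity label reflects the gate a clone came from. Genes were amplified by colony PCR, sequenced by MiSeq 2 × 250 and filtered by CDR length.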

Row | Sequence | polyreactivity (PSR sort gate)
1 | HVQLVESGGGLVQAGGSLRLSCAASGLTYPRYTMGWYRQAPGKESELVAAISSSTGTTNYADSVKGRFTISRDNAKINVYLQMYSLKPEDTAVYYCAAGGSLYAYGYRSRYGYWGQGTQVTVSS | low polyreactivity
2 | HVQLVESGGGLVQAGGSLRLSCAASGNICYGYAMGGYRQAPGKERELVARINWSGSRTYYADSVKGRFTISRDNAKNTVYLQMNSLKPDDTAVYYCNTSTSRVPGNGDYWGQGTQVTVSS | high polyreactivity
3 | HVQLVESGGGLVQAGGSLRLSCAASGNTFTEYAMGWYRQAPGKERELVASITGSGGSTYADSVRGRFTISRDNAKNTVYLQMNSLKPEDTAVYYCAKDPRYEYVGSEYGYWGQGTQVTVSS | low polyreactivity
4 | HVQLVESGGGLVQAGGSLRLSCAASGRIFGYYAIGWYRQATRKERELVAAITINGRRTYYADSVKGRFTISRDNAKNTVYLQMKSLKPEDTAVYLCTATSRYNRLGYWGQGTQVSVSS | high polyreactivity
5 | HVQLVESGGGLVQAGGSLRLSCAASGRIFRKYAMGWYRQAPGKERELVAVITGSAGSTYYADSVKGRFTISRDNAKNTVYLQMNSLKPEDTAVYYCAKVSTSWDYGIYPFDEGYYWGQGTKVTVSS | low polyreactivity
6 | HVQLVESGGGLVQAGGSLRLSCAASGRISDRYAMGWSRQAPGKEREFVAAISWSGASTYYADSVKGRFTISRDNAKNTVYLQMNSLKAEDTAVYYCAARRRHKYDYWGQGTQVTVSS | high polyreactivity
7 | HVQLVESGGGLVQAGGSLRLSCAASGRNYYTYTMGRSRQAPGKEKQLVATITVGTRTNYADSVKGRFTISRDNAQNTVYLQMNSLKRVDTAVYYCNAEWSSKRFTGDDYWGQGTQVTVSS | low polyreactivity
8 | HVQLVESGGGLVQAGGSLRLSCAASGRTFGIYAMGWYRKAPGKERELVAAITGRGGSTHYADSVKGRFTISRDNAKNTVYLQMNSLKPEDTAVYYCAADYRYNRGITSNKDYDYWGQGTQVTVSS | low polyreactivity
9 | HVQLVESGGGLVQAGGSLRLSCAASGRTFIYNAMGWYRQAPGKEREFVAANTWSGATTRYADSVKGRFTISRDNAKNTVYLEMNSLKPEDTAVYYCAKGGFYYYGWRSSMDYWGQGTQVTVSS | high polyreactivity
10 | HVQLVESGGGLVQAGGSLRLSCAASGRTFRLYAMGRYRQATGKEMELVARIRWRGGTTYFADSVKGRFTISRDNAKNTVYLQMNRLKPEDTAVYYCAARAYPTWRTYYYCGQGTQVTVSS | high polyreactivity
11 | HVQLVESGGGLVQAGGSLRLSCAASGSIFDSYVMGWYRQAPGTERELVAAITYSGGSTYADSVKGRFTISRDNAKNTVYLQMNSLKPEDTAVYYCAAASYFYLYLLEDYWGQGTQVTVSS | low polyreactivity
12 | HVQLVESGGGLVQAGGSLRLSCAASGSIFVLNAMGWYRQAPGKERELVAAITNVGSTYYADSVKGRFTISRDNAKNTVYLQMNSLKPEDTAVYYCNADPGEVLVGYDYWGQGTQVTVSS | low polyreactivity
13 | HVQLVESGGGLVQAGGSLRLSCAASGSIFYGNTMGWYRQAPGKEREFVAAINKSDDSTYYADSVKGRFTISRDNAKNTVYLQMNSLKPEDTAVYYCWGPGTQVTVSS | low polyreactivity
14 | HVQLVESGGGLVQAGGSLRLSCAASGSIYALYDLGRYRQAPGKERELVASITGSGGNTYYADSVKGRFTISRDNAKNTVYLQMNSLKPEDTAVYYCAADFRYAGYSYDYWGQGTQVSVSS | low polyreactivity
15 | HVQLVESGGGLVQAGGSLRLSCAASGSTCRYYARGWYRQAPGKERELGAAISGRGARTYYADSVKGRFTISRDNAKNTVYLQMNSLKPEDTAVYYCAAVGYRYRHSRYYWGQGTQVTVSS | high polyreactivity
16 | HVQLVESGGGLVQAGGSLRLSCAASGSTFAGNAMGWYRQAPGKERELVAAITFSGGRTDYADSVKGRFTISRDNAKNTVYLQMNSLKPEDTAVYYCAAPADDTVHYQNYYWGQGTQVTVSS | low polyreactivity

Row | Sequence | polyreactivity (PSR sort gate)
17 | HVQLVESGGGLVQAGGSLRLSCAASGSTFGRYVMGWHRQAPGKERELVAAISKNAGSTYYADSVKGRFTISRDNAKNTVYLKMASLKPEDTAVYYCAADWRTKGYDSLGQGTQVTVSS | high polyreactivity
18 | HVQLVESGGGLVQAGGSLRLSCAASGSTFSGYAMGWYRQAPGKERELVAAISSSGGSTYYADSVKGRFTISRDNAKNTVYLQMNSLKPEDTAVYYCNADEYRGTSTEFEYWGQGTQVTVSS | high polyreactivity
19 | HVQLVESGGGLVQAGGSLRLSCAASGTFYKNAMGWYRQAPGKERELVAAISWRGGRTYADSVKGRFTISRDNAKNSVYLQMNSLKPEDTAVYYCNKRFYPEHYYWGQGTQVTVSS | high polyreactivity
20 | HVQLVESGGGLVQAGGSLRLSCAASGYTFVPYAMGWYRQAPGKERELVAAISSSGGDTYYADSVKGRFTISRDNAKNTVYLQMNSLKPEDTAVYYCNTGVYVWQYWYYGFDYWGQGTQVTVSS | low polyreactivity
21 | HVQLVESGGGLVQAGGSLRLSCAHSGIIFRTNAMGWYRQAPGKEREFVAAISAGATRKYYADSVKGRFTISRDTAKNTVYLQMNSLKPEDTAVYYCAAASGYDYWGQGTQVTVSS | high polyreactivity
22 | HVQLVESGGVLVQAGGSLRLSCAATGSIFRNNAMGWYRQAPGKERDLVAAISSSGGSTFYADSVKGRFTISRDNAKNTVYLQMNSQNPEDTAVYYCAARVRSELIKRYDWGQGTQVTVSS | high polyreactivity
23 | HVQLVESGRGLVEAGGSLRLSCAAYGLGCTVNAMVWYIQAPGTERELVARIVWPGITYADSVKGRFTISLDNAMNTVYLQMNSQKPEDTAVYYCAAVWLHHSYYAKYDYWGQRTQVTVSS | low polyreactivity
24 | HVQLVETVGGLVQAGGSLRLSCAASGSNFDPNAMGWYRQAPVKERELVAAISWSGGSTYYADSVKGRFTISRDNAKNNVYLQMHSLKPEDTAVYYCNAQFYDSYSYTNDYWGQGTQVTVSS | low polyreactivity
25 | HVQVVESGGGLVQEGGSLRLICAASGYLFAYYAMGWFRQAPGKERELVAPIRSGGSTNYADSVKGRFTISRDNAKNTVYLQMNSLKPEDTAVYYCAKGDRRWTLCRPDYDYWGQGTQVTVAS | low polyreactivity
26 | IIQAGGSLRLSCAASVRTFSGYAMGWYRQAPGKERELIADITSGGSTYYADSVKGRFTISRDNAKNTVYLQMNSLKPEDTAVFYCCRDDRLAGDYWGQGTQVNVSS | low polyreactivity
27 | KLQLVESGRGLVQEGGSLRLSCAASGSTFGANAMGWYRHAPGKASEFVAAISRSGVRTYYADSVKGRFTISRDNAKNTVYLQMNSQKPEDTAVYYCAAYGYWWTYTRDDYWGQGTQGTVSS | low polyreactivity
28 | KVHLVESGGGLVQAGGSLRLSCPAAGFTLDQYAMGWYRQAPGKEMELVAVITSGVNTYYADSVKGRFTISRDNAKNTVYLQMNSLKPEDTAVYYCAKDVCDPFYDPFEYWGQGTQVTVSS | low polyreactivity
29 | KVNIEESGGGLVQAGGSLRLSCAAYGSIFRYYAMGRYRQATGKERELVASISSSGGSTYYADSEKGRFTISRDNAKNTVYLQMNSLKPEDTAVYYCAAVRHRNYGYWGQGTQVTVSS | high polyreactivity
30 | KVQIVESVGGLVQAGASLRLSCAASGSIFRYYPMGWYRQAPGKERELDAAISSSGTTYYADSVKGRFTISRDNAKNTVYLQMNRLKPEDCAVYYCAAVWTYWYYGDDYWGLGTQVTVSS | low polyreactivity
31 | KVQLVESGGGLVQAGGRLRLSCAPSGSIFGTNTMGWYRQAPGTERELVAAIRLSDSSTYYADSVKGRFTISRDNAKNTVYLQMKSLKPEDTAVYDCAVDYRAYHYYRYDYWGQGTQVTVSS | low polyreactivity
32 | KVQLVESGGGLVQAGGSLRISCAASGFIFVDYAMGWYRQAPGKERELVAAISSSGSTTYADSVKGRFTISRDNAKNIVYLQMNSLKPEDTAVYYCNADAEVVPGEYDYWGQGTQVTVSS | low polyreactivity
